Measured values as given in publication PMC4675670.

System: O=C(O)[C@@H]1CCCN1
Assay: enzyme kinetics, Km
Type: biochemical, Plasmodium falciparum
Conditions: proline-binding pocket

Row | Substance | Km [µM]
1 | cytoplasmic prolyl-tRNA synthetase (PfcPRS, PF3D7_1213800) (Plasmodium falciparum 3D7) | 117.0
2 | cytoplasmic prolyl-tRNA synthetase (PfcPRS, PF3D7_1213800) (Plasmodium falciparum 3D7; L482H) | 747.7
